Reference: publication doi:10.1101/2024.05.08.593122 (bioRxiv, 2024)

Tests used:
[1] = molecular target: the molecule itself; assay: non-reducing SDS-PAGE with immunodecoration
[2] = molecular target: T1, N-terminally FLAG tagged Tgl2 (S. cerevisiae, UniProt P54857 1-326); assay: native gel or EMSA
T1 sequence (looked up): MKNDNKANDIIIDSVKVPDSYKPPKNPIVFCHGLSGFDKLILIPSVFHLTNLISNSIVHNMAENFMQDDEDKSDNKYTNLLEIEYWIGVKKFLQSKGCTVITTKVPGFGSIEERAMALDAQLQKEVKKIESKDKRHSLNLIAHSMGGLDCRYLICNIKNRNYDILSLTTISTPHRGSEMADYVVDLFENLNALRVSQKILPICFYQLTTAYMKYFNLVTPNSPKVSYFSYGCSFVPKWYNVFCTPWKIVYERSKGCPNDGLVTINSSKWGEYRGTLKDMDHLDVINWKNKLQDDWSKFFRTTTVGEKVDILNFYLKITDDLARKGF

B1: N-terminally HA tagged Tgl2 (natural protein, S. cerevisiae, UniProt P54857 1-326, looked up)
chain: T1 sequence (looked up)
stoichiometry N [1]: 2
stoichiometry N [2]: ≥ 2
